# B1: NOX2 (gp91phox), catalytic subunit of phagocyte NADPH oxidase (enzyme)
# chain: MGNWAVNEGLSIFVILVWLGLNVFLFVWYYRVYDIPPKFFYTRKLLGSALALARAPAACLNFNCMLILLPVCRNLLSFLRGSSACCSTRVRRQLDRNLTFHKMVAWMIALHSAIHTIAHLFNVEWCVNARVNNSDPYSVALSELGDRQNESYLNFARKRIKNPEGGLYLAVTLLAGITGVVITLCLILIITSSTKTIRRSYFEVFWYTHHLFVIFFIGLAIHGAERIVRGQTAESLAVHNITVCEQKISEWGKIKECPIPQFAGNPPMTWKWIVGPMFLYLCERLVRFWRSQQKVVITKVVTHPFKTIELQMKKKGFKMEVGQYIFVKCPKVSKLEWHPFTLTSAPEEDFFSIHIRIVGDWTEGLFNACGCDKQEFQDAWKLPKIAVDGPFGTASEDVFSYEVVMLVGAGIGVTPFASILKSVWYKYCNNATNLKLKKIYFYWLCRDTHAFEWFADLLQLLESQMQERNNAGFLSYNIYLTGWDESQANHFAVHHDEEKDVITGLKQKTLYGRPNWDNEFKTIASQHPNTRIGVFLCGPEALAETLSKQSISNSESGPRGVHFIFNKENF
# modifications: N-glycan moieties at asparagines 132, 149 and 240; two hemes bound
# Target: T1, N-terminal FLAG tag-p22phox (human, UniProt P13498 1-195)
# T1 sequence: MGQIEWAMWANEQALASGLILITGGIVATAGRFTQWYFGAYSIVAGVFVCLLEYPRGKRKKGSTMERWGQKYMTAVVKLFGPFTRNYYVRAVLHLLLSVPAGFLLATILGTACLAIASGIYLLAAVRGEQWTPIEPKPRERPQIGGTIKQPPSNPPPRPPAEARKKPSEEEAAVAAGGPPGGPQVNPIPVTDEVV
# Test: cryo-EM structure
binder,measurement,value
B1,stoichiometry N,1
